B1: PDZK1 (parent)
chain: QKEQGLSDNILSPVMNGGVQTWTQ
B2: IQUB (parent)
chain: EADYEDDSKIAFLMQLQDIQYLTE

Variants of: B1
Test: protein stability index of a GFP-peptide fusion (GPS, HEK-293T) (PSI 1-6); higher = more stable
Details: c terminus: a fixed tail appended
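Note: lentivirally expressed fusions sorted by FACS into six bins by GFP to DsRed ratio, PSI derived from sequencing read proportions per bin multiplied by bin number.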

Variant	protein stability index
QKEQGLSDNILSPVMNGGHQTWTQ	2.58
QKEQGLSDNILSPVMNGGIQTWTQ	2.17
QKEQGLSDNILSPVMNGGAQTWTQ	2.99
QKEQGLSDNILSPVMNGGNQTWTQ	2.6
QKEQGLSDNILSPVMNGGYQTWTQ	1.86
QKEQGLSDNILSPVMNGGMQTWTQ	1.9
QKEQGLSDNILSPVMNGGPQTWTQ	3.44
QKEQGLSDNILSPVMNGGTQTWTQ	3.09
QKEQGLSDNILSPVMNGGEQTWTQ	3.7
QKEQGLSDNILSPVMNGGFQTWTQ	2.42
QKEQGLSDNILSPVMNGGDQTWTQ	4.3
QKEQGLSDNILSPVMNGGKQTWTQ	2.16
QKEQGLSDNILSPVMNGGRQTWTQ	1.85
QKEQGLSDNILSPVMNGGGQTWTQ	2.9
QKEQGLSDNILSPVMNGGVYTWTQ	2.68
QKEQGLSDNILSPVMNGGVVTWTQ	2.67
QKEQGLSDNILSPVMNGGVCTWTQ	2.16
QKEQGLSDNILSPVMNGGVTTWTQ	3
QKEQGLSDNILSPVMNGGVITWTQ	2.49
QKEQGLSDNILSPVMNGGVNTWTQ	3.73
QKEQGLSDNILSPVMNGGVFTWTQ	2.68
QKEQGLSDNILSPVMNGGVKTWTQ	3.8
QKEQGLSDNILSPVMNGGVDTWTQ	3.29
QKEQGLSDNILSPVMNGGVETWTQ	1.58
QKEQGLSDNILSPVMNGGVLTWTQ	2.14

Variant	protein stability index
QKEQGLSDNILSPVMNGGVWTWTQ	3.36
QKEQGLSDNILSPVMNGGVPTWTQ	3.07
QKEQGLSDNILSPVMNGGVATWTQ	3.69
QKEQGLSDNILSPVMNGGVGTWTQ	3.02
QKEQGLSDNILSPVMNGGVSTWTQ	2.88
QKEQGLSDNILSPVMNIGVQTWTQ	3.36
QKEQGLSDNILSPVMNVGVQTWTQ	3.6
QKEQGLSDNILSPVMNMGVQTWTQ	2.36
QKEQGLSDNILSPVMNAGVQTWTQ	3.96
QKEQGLSDNILSPVMNHGVQTWTQ	1.91
QKEQGLSDNILSPVMNEGVQTWTQ	3.27
QKEQGLSDNILSPVMNKGVQTWTQ	2.13
QKEQGLSDNILSPVMNTGVQTWTQ	2.25
QKEQGLSDNILSPVMNLGVQTWTQ	2.8
QKEQGLSDNILSPVMNYGVQTWTQ	2.5
QKEQGLSDNILSPVMNFGVQTWTQ	2.19
QKEQGLSDNILSPVMNSGVQTWTQ	3.31
QKEQGLSDNILSPVMNWGVQTWTQ	1.85
QKEQGLSDNILSPVMNRGVQTWTQ	2.04
QKEQGLSDNILSPVMNGGVQTYTQ	4.09
QKEQGLSDNILSPVMNGGVQTKTQ	4.93
QKEQGLSDNILSPVMNGGVQTNTQ	5.08
QKEQGLSDNILSPVMNGGVQTRTQ	5.04
QKEQGLSDNILSPVMNGGVQTMTQ	4.55
QKEQGLSDNILSPVMNGGVQTITQ	4.88

Variant	protein stability index
QKEQGLSDNILSPVMNGGVQTETQ	4.3
QKEQGLSDNILSPVMNGGVQTDTQ	4.78
QKEQGLSDNILSPVMNGGVQTFTQ	3.97
QKEQGLSDNILSPVMNGGVQTATQ	4.41
QKEQGLSDNILSPVMNGGVQTPTQ	5.07
QKEQGLSDNILSPVMNGGVQTSTQ	5.05
QKEQGLSDNILSPVMNGGVQTCTQ	4.8
QKEQGLSDNILSPVMNGGVQTHTQ	4.59
QKEQGLSDNILSPVMNGGVQTQTQ	5.24
QKEQGLSDNILSPVMNGGVQLWTQ	2.68
QKEQGLSDNILSPVMNGGVQMWTQ	3.63
QKEQGLSDNILSPVMNGGVQCWTQ	2.66
QKEQGLSDNILSPVMNGGVQKWTQ	3.46
QKEQGLSDNILSPVMNGGVQWWTQ	2.82
QKEQGLSDNILSPVMNGGVQNWTQ	3.65
QKEQGLSDNILSPVMNGGVQQWTQ	3.55
QKEQGLSDNILSPVMNGGVQDWTQ	4.85
QKEQGLSDNILSPVMNGGVQAWTQ	3.61
QKEQGLSDNILSPVMNGGVQPWTQ	3.74
QKEQGLSDNILSPVMNGGVQRWTQ	3.23
QKEQGLSDNILSPVMNGGVQFWTQ	2.75
QKEQGLSDNILSPVMNGGVQEWTQ	3.71
QKEQGLSDNILSPVMQGGVQTWTQ	1.72
QKEQGLSDNILSPVMYGGVQTWTQ	2.45
QKEQGLSDNILSPVMRGGVQTWTQ	2.34

Variant	protein stability index
QKEQGLSDNILSPVMIGGVQTWTQ	2.89
QKEQGLSDNILSPVMPGGVQTWTQ	2.12
QKEQGLSDNILSPVMKGGVQTWTQ	1.49
QKEQGLSDNILSPVMSGGVQTWTQ	2.81
QKEQGLSDNILSPVMLGGVQTWTQ	2.47
QKEQGLSDNILSPVMNGGVQTWMQ	3.74
QKEQGLSDNILSPVMNGGVQTWSQ	3.43
QKEQGLSDNILSPVMNGGVQTWPQ	4.25
QKEQGLSDNILSPVMNGGVQTWQQ	2.16
QKEQGLSDNILSPVMNGGVQTWKQ	3.39
QKEQGLSDNILSPVMNGGVQTWYQ	3.05
QKEQGLSDNILSPVMNGGVQTWIQ	4
QKEQGLSDNILSPVMNGGVQTWVQ	1.56
QKEQGLSDNILSPVMNGGVQTWFQ	3.02
QKEQGLSDNILSPVMNGGVQTWWQ	2.96
QKEQGLSDNILSPVMNGGVQTWDQ	3.67
QKEQGLSDNILSPVMNGGVQTWRQ	3.42
QKEQGLSDNILSPVMNGGVQTWGQ	3.5
QKEQGLSDNILSPVMNGGVQTWNQ	3.12
QKEQGLSDNILSPVMNGHVQTWTQ	2.62
QKEQGLSDNILSPVMNGAVQTWTQ	3.46
QKEQGLSDNILSPVMNGPVQTWTQ	3.46
QKEQGLSDNILSPVMNGDVQTWTQ	3.35
QKEQGLSDNILSPVMNGVVQTWTQ	2.47
QKEQGLSDNILSPVMNGKVQTWTQ	1.53

Variant	protein stability index
QKEQGLSDNILSPVMNGRVQTWTQ	1.84
QKEQGLSDNILSPVMNGYVQTWTQ	2.45
QKEQGLSDNILSPVMNGNVQTWTQ	2.67
QKEQGLSDNILSPVMNGWVQTWTQ	2.33
QKEQGLSDNILSPVMNGIVQTWTQ	2.61
QKEQGLSDNILSPVMNGCVQTWTQ	2.54
QKEQGLSDNILSPVMNGLVQTWTQ	2.58
QKEQGLSDNILSPVMNGFVQTWTQ	2.45
QKEQGLSDNILSPVMNGEVQTWTQ	2.56
QKEQGLSDNILSPVMNGSVQTWTQ	2.65
QKEQGLSDNILSPVMNGMVQTWTQ	2.58
QKEQGLSDNILSPVMNGGVQTWTC	2.14
QKEQGLSDNILSPVMNGGVQTWTP	4.43
QKEQGLSDNILSPVMNGGVQTWTI	2.36
QKEQGLSDNILSPVMNGGVQTWTH	2.84
QKEQGLSDNILSPVMNGGVQTWTT	3.66
QKEQGLSDNILSPVMNGGVQTWTG	3.58
QKEQGLSDNILSPVMNGGVQTWTD	3.13
QKEQGLSDNILSPVMNGGVQTWTM	2.26
QKEQGLSDNILSPVMNGGVQTWTF	1.78
QKEQGLSDNILSPVMNGGVQTWTE	3.43
QKEQGLSDNILSPVMNGGVQTWTS	1.68
QKEQGLSDNILSPVMNGGVQTWTR	3.35
QKEQGLSDNILSPVMNGGVQTWTK	3.55
QKEQGLSDNILSPVMNGGVQTWTV	2.72

Variants of: B2
Test: as above
Details: c terminus: a fixed tail appended

Variant	protein stability index
EADYCDDSKIAFLMQLQDIQYLTE	2.76
EADYIDDSKIAFLMQLQDIQYLTE	2.29
EADYRDDSKIAFLMQLQDIQYLTE	2.63
EADYEDDSKIAFLMQLQDSQYLTE	4.35
EADYEDDSKIAFLMQLQDKQYLTE	4.86
EADYEDDSKIAFLMQLQDQQYLTE	4.11
EADYEDDSKIAFLMQLQDTQYLTE	4.15
EADYEDDSKIAFLMQLQDVQYLTE	3.86
EADYEDDSKIAFLMQLQDFQYLTE	3.44
EADYEDDSKIAFLMQLQDYQYLTE	3.54
EADYEDGSKIAFLMQLQDIQYLTE	2.78
EADYEDYSKIAFLMQLQDIQYLTE	2.18
EADYEDVSKIAFLMQLQDIQYLTE	1.96
EADYEDDSKIAFLMQLMDIQYLTE	2.17
EADYEDDSKIAFLMQLCDIQYLTE	2.25
EADYEDDSKIAFLMQLQDIQYNTE	4.65
EADYEDDIKIAFLMQLQDIQYLTE	2.15
EADYEDDSKIAFLMQLQDIQYLCE	1.87
EADYEDDSKIAFLMQLQDIQYLGE	3.19
EADYEDDSKIAFLMQLQDIQYLRE	3.29
EADYEDDSKIAFLMQLQDIQYLME	1.92

Variant	protein stability index
EADYEMDSKIAFLMQLQDIQYLTE	1.75
EADYEIDSKIAFLMQLQDIQYLTE	2.21
EADYEQDSKIAFLMQLQDIQYLTE	2.57
EADYELDSKIAFLMQLQDIQYLTE	1.53
EADYEFDSKIAFLMQLQDIQYLTE	2.04
EADYECDSKIAFLMQLQDIQYLTE	2.68
EADYEKDSKIAFLMQLQDIQYLTE	2.63
EADYEDDSKIAFLMQLQDIQYLTK	2.73
EADYEDDSKIAFLMQLQDIQNLTE	3.87
EADYEDDSKIAFLMQLQDIQLLTE	3.44
EADYEDDSKIAFLMQLQDIQWLTE	2.95
EADYEDDSKIAFLFQLQDIQYLTE	2.46
EADYEDDSKIAFLRQLQDIQYLTE	3.75
EADYEDDSKIAFLVQLQDIQYLTE	2.7
EADYEDDSKIAFLMQLQQIQYLTE	2.68
EADYEDDSKIAFLMQLQNIQYLTE	2.58
EADYEDDSKIAFLMQLQYIQYLTE	1.54
EADYEDDSKIAALMQLQDIQYLTE	3.89
EADYEDDSKIAVLMQLQDIQYLTE	3.54
EADYEDDSKIANLMQLQDIQYLTE	4.33
EADYEDDSKIAFLMQLQDIHYLTE	3.12

Variant	protein stability index
EADYEDDSKIAFLMQLQDIIYLTE	2.64
EADYEDDSKIAFLMELQDIQYLTE	3.36
EADYEDDSKIAFLMPLQDIQYLTE	3.39
EADYEDDSKIAFYMQLQDIQYLTE	2.84
EADYEDDSKIAFPMQLQDIQYLTE	4.68
ELDYEDDSKIAFLMQLQDIQYLTE	3.46
EADYEDDSKMAFLMQLQDIQYLTE	3.2
EADYEDDSKLAFLMQLQDIQYLTE	3
EADYEDDSKPAFLMQLQDIQYLTE	4.53
EADYEDDSKKAFLMQLQDIQYLTE	4.01
EADYEDDSKIAFLMQYQDIQYLTE	3.64
EADFEDDSKIAFLMQLQDIQYLTE	3.16
EADAEDDSKIAFLMQLQDIQYLTE	3.76
MADYEDDSKIAFLMQLQDIQYLTE	2.38
CADYEDDSKIAFLMQLQDIQYLTE	2.61
IADYEDDSKIAFLMQLQDIQYLTE	2.09
EADYEDDSDIAFLMQLQDIQYLTE	3.63
EADYEDDSPIAFLMQLQDIQYLTE	2.9
EAQYEDDSKIAFLMQLQDIQYLTE	2.23
EACYEDDSKIAFLMQLQDIQYLTE	1.69
EAHYEDDSKIAFLMQLQDIQYLTE	2.17

— the supplement of paper PMC10567573
